Assay results published in US20190161551A1 (Regeneron, published 2019).

B1: human brain derived neurotrophic factor (ligand, UniProt P23560 129-247, looked up)
chain: HSDPARRGELSVCDSISEWVTAADKKTAVDMSGGTVTVLEKVPVSKGQLKQYFYETKCNPMGYTKEGCRGIDKRHWNSQCRTTQSYVRALTMDSKKRIGWRFIRIDTSCVCTLTIKRGR
B2: M2aM14178N (antibody, mouse IgG2a, V domains shown)
VH: EVQLVESGGGLVKPGGSLKLSCTASGFTFSSYAMSWVRQTPEKRLEWVANISDGGTYTYYPDNIKGRFTISRDNAKNNLYLQMSHLESEDTAMYYCIRGDVYYVRFAYWGQGTLVTVSA
VL: QAVVTQESALTTSPGETVTLTCRSSTGAVTSSNHANWVQEKPDHLFTGLIGGTNNRAPGVPARFSGSLIGDKAALTITGAQTEDEAIYFCALWHSNHWVFGGGTKLTVLG
notes: Anti-mouse TrkB antibody from hybridoma, mouse IgG2a Fc; also called surrogate anti-mouse TrkB antibody
B3: rat TrkB extracellular domain expressed with a C-terminal myc-myc-hexahistidine tag (receptor)
chain: CPMSCKCSTTRIWCTEPSPGIVAFPRLEPNSIDPENITEILIANQKRLEIINEDDVEAYVGLKNLTIVDSGLKFVAYKAFLKNGNLRHINFTRNKLTSLSRRHFRHLDLSDLILTGNPFTCSCDIMWLKTLQETKSSPDTQDLYCLNESSKNTPLANLQIPNCGLPSARLAAPNLTVEEGKSVTISCSVGGDPLPTLYWDVGNLVSKHMNETSHTQGSLRITNISSDDSGKQISCVAENLVGEDQDSVNLTVHFAPTITFLESPTSDHHWCIPFTVRGNPKPALQWFYNGAILNESKYICTKIHVTNHTEYHGCLQLDNPTHMNNGDYTLMAKNEYGKDERQISAHFMGRPGVDYETNPNYPEVLYEDWTTPTDIGDTTNKSNEIPSTDVADQTNREHEQKLISEEDLGGEQKLISEEDLHHHHHH
notes: also called rTrkB.mmH; rTRKB.mmH

Experiments:
[1] = target: T1, human TrkB expressed on HEK293/SRE-Luc/hTrkB cells (human, UniProt Q16620 32-822); test: cell-based or functional assay
[2] = target: T2, mouse TrkB extracellular domain fused to the transmembrane and cytoplasmic domains of human TrkB, expressed … (mouse; human, UniProt Q16620 431-822, limits assumed); test: cell-based or functional assay
[3] = target: T1, human TrkB expressed on …; test: cell-based or functional assay; remark: listed apart in the source
[4] = target: T2, mouse TrkB extracellular domain fused …; test: cell-based or functional assay; remark: listed apart in the source
[5] = target: T3, mouse TrkB extracellular domain expressed with a C-terminal myc-myc-hexahistidine tag (mouse, UniProt P15209 32-429); test: SPR Biacore T200, mAb captured (anti-mFc), 25C
T3 construct: also called mTrkB.mmH; mTRKB.mmH
Description: (§1) Equilibrium dissociation constants (KD values) for TrkB binding to purified anti-TrkB monoclonal antibodies were determined using a real-time surface plasmon resonance biosensor using a Biacore T200 instrument. All binding studies were performed in 10 mM Hepes pH 7.4, 150 mM NaCl, 3 mM EDTA, and 0.05% v/v Surfactant Tween-20 (HBS-ET running buffer) at 25° C. The Biacore sensor surface was first derivatized by amine coupling with rabbit anti-mouse Fc polyclonal antibody (GE Healthcare #BR-1008-38) to capture anti-TrkB monoclonal antibodies. Binding studies were performed on the following TrkB reagents; human TrkB extracellular domain expressed with a C-terminal myc-myc-hexahistidine tag (hTrkB.mmH; SEQ ID NO: 76; NP_001018074.1), mouse TrkB extracellular domain expressed with a C-terminal myc-myc-hexahistidine tag (mTRKB.mmH; SEQ ID NO: 79; NP_001020245), and rat TrkB extracellular domain expressed with a C-terminal myc-myc-hexahistidine tag (rTRKB.mmH; SEQ ID NO: 84; XP_002721319.1). […] Kinetic association (kₐ) and dissociation (kd) rate constants were determined by fitting the real-time binding sensorgrams to a 1:1 binding model with mass transport limitation using Scrubber 2.0c curve-fitting software. Binding dissociation equilibrium constants (KD) and dissociative half-lives (t½) were calculated from the kinetic rate constants as: […]

[6] = target: B3; test: SPR Biacore T200, mAb captured (anti-mFc), 25C
Description: as §1

[7] = target: T4, human TrkB extracellular domain expressed with a C-terminal myc-myc-hexahistidine tag (human, UniProt Q16620 32-430); test: SPR Biacore T200, mAb captured (anti-mFc), 25C
T4 construct: also called hTrkB.mmH; hTRKB.mmH
Description: as §1

mouse TrkB.hFc [8] = target: T5, mouse TrkB.hFc (mouse); test: BLI Octet, captured mTrkB.hFc, 300 nM mAb, no ligand
T5 construct: also called mTrkB.hFc; mTrkB-hFc
Description: (§2) Blocking of anti-human TrkB or anti-mouse TrkB antibodies from binding to TrkB by BDNF or NT-4 was evaluated using a real-time bio-layer interferometry (BLI) based Octet HTX instrument. The entire study was performed in 10 mM HEPES pH 7.4, 300 mM NaCl, 3 mM EDTA, 1 mg/mL BSA, 0.02% NaN3 and 0.05% v/v Surfactant Tween-20 (HBS-EBT running buffer) at 25° C. All the samples were dispensed in a 384 tilted well plate and the plate was placed on the orbital shaker with the shake speed of 1000 rpm. hTrkB.mFc was captured on anti-mFc (AMC) Octet sensors while hTrkB.hFc or mTrkB.hFc were captured on anti-hFc (AHC) Octet sensors by dipping in wells containing 10 μg/mL of TrkB reagents for 2 minutes. hTrkB.mFc or hTrkB.hFc captured Octet biosensors were saturated by dipping in wells containing 20 nM of BDNF, hNT-4, or mNT-4 for 2 minutes followed by dipping Octet biosensors in wells containing 300 nM of different TrkB mAbs for 4 minutes. Binding of TrkB mAbs to the complex of TrkB and BDNF, hNT-4, or mNT-4 was determined using Scrubber 2.0c analysis software.

mouse TrkB.hFc [9] = target: T5, mouse TrkB.hFc; test: BLI Octet, captured mTrkB.hFc, 300 nM mAb (BDNF run)
Description: (§3) Blocking of BDNF or NT-4 from binding to TrkB by anti-human TrkB or anti-mouse TrkB antibodies was evaluated using a real-time bio-layer interferometry (BLI) based Octet HTX instrument. The entire study was performed in 10 mM HEPES pH 7.4, 300 mM NaCl, 3 mM EDTA, 1 mg/mL BSA, 0.02% NaN3 and 0.05% v/v Surfactant Tween-20 (HBS-EBT running buffer) at 25° C. All the samples were dispensed in a 384 tilted well plate and the plate was placed on the orbital shaker with the shake speed of 1000 rpm. hTrkB.mFc was captured on anti-mFc (AMC) Octet sensors while hTrkB.hFc or mTrkB.hFc were captured on anti-hFc (AHC) Octet sensors by dipping in wells containing 10 μg/mL of TrkB reagents for 2 minutes. hTrkB.mFc or hTrkB.hFc captured Octet biosensors were saturated by dipping in wells containing 300 nM of different TrkB mAbs for 4 minutes followed by dipping Octet biosensors in wells containing 20 nM of BDNF, hNT-4, or mNT-4 for 2 minutes. Binding of BDNF, hNT-4, or mNT-4 to the complex of TrkB and different TrkB mAbs was determined using Scrubber 2.0c analysis software.

mouse TrkB.hFc [10] = target: T5, mouse TrkB.hFc; test: BLI Octet, captured mTrkB.hFc, 300 nM mAb (NT-4 run)
Description: as §3

mouse TrkB.hFc [11] = target: T5, mouse TrkB.hFc; test: BLI Octet, captured mTrkB.hFc saturated with BDNF, 300 nM mAb
Description: as §2

mouse TrkB.hFc [12] = target: T5, mouse TrkB.hFc; test: BLI Octet, captured mTrkB.hFc saturated with mNT-4, 300 nM mAb
Description: as §2

[13] = target: B3; test: blocking ELISA, rat TrkB.mmh pre-mixed with mAb, plate-coated BDNF
Description: (§4) Experiments were carried out using the following procedure. Human BDNF was coated at a concentration of 0.5 μg/mL (for blocking mouse TrkB.hFc interaction) or 0.3 μg/mL (for blocking rat TrkB.mmh interaction) in PBS on 96-well microtiter plate and incubated overnight at 4° C. […] In a 96-well dilution plate, 850 pM mouse TrkB.hFc or rat TrkB.mmh was mixed with the three-fold serially diluted anti-mouse TrkB antibodies and control antibody. The final antibody concentrations ranged from 1.69 pM to 100 nM. The protein-antibody mix was incubated at room temperature (RT) for 1 hour. The pre-bound mix was then transferred in duplicates to microtiter plates coated with BDNF. A control containing assay buffer alone was included to calculate the baseline of the assay. The ELISA plates were incubated at RT for 1 hour and then washed with plate washing solution. Plate-bound mouse TrkB.hFc was detected with HRP-conjugated goat anti-human Fcγ fragment specific antibody (Jackson Immunoresearch) and rat TrkB.mmh was detected with HRP-conjugated anti-histidine antibody (Qiagen). The plates were incubated with detection antibody for 1 hour at RT and then washed with plate washing solution. The assay plates were developed with TMB colorimetric substrates according to the manufacturer's recommended procedure.
(§5) The absorbance at 450 nm for each well was recorded and plotted as a function of the concentration of antibody. Data was analyzed in GraphPad Prism software using a four-parameter logistic equation over an 11-point dose response curve and IC₅₀ values were calculated. […] Percent blockade at maximum concentration of the antibody tested was calculated as an indicator of the ability of the antibodies to block the binding of TrkB to BDNF on the plate relative to the baseline of the assay. Binding signal of 850 pM mouse or rat TrkB in absence of the antibody was defined as 100% binding or 0% blocking. The baseline signal of assay buffer alone was defined as 0% binding or 100% blocking.

mouse TrkB.hFc [14] = target: T5, mouse TrkB.hFc; test: blocking ELISA, mouse TrkB.hFc pre-mixed with mAb, plate-coated BDNF
Description: as §4, §5

[15] = target: B1; test: ELISA, dose-response of TrkB on plate-coated BDNF
Text: FIG. 5. Consists of FIG. 5A and FIG. 5B which show the ability of anti-mouse TrkB monoclonal antibodies to block interaction between mouse or rat TrkB and its ligand BDNF (Brain Derived Neurotrophic Factor). ELISA-based methods were used to assess the binding of (FIG. 5A with two graphs) mouse TrkB.hFc and (FIG. 5B with two graphs) rat TrkB.mmh to plate coated BDNF in presence of a range of concentrations of Anti-mouse TrkB and isotype control mAbs. […] Molarity (M) indicates antibody concentration for mAbs. Error bars represent Standard Deviation.
(§6) Experiments were carried out using the following procedure. Human BDNF was coated at a concentration of 0.5 μg/mL (for blocking mouse TrkB.hFc interaction) or 0.3 μg/mL (for blocking rat TrkB.mmh interaction) in PBS on 96-well microtiter plate and incubated overnight at 4° C. […] In a 96-well dilution plate, 850 pM mouse TrkB.hFc or rat TrkB.mmh was mixed with the three-fold serially diluted anti-mouse TrkB antibodies and control antibody. The final antibody concentrations ranged from 1.69 pM to 100 nM. The protein-antibody mix was incubated at room temperature (RT) for 1 hour. […] Plate-bound mouse TrkB.hFc was detected with HRP-conjugated goat anti-human Fcγ fragment specific antibody (Jackson Immunoresearch) and rat TrkB.mmh was detected with HRP-conjugated anti-histidine antibody (Qiagen). […]

[16] = target: B1; test: ELISA: dose curve of rat TrkB.mmh binding to plate-coated BDNF, absorbance 450 nm
Description: as §6, with “hour. The pre-bound mix was then transferred in duplicates to microtiter plates coated with BDNF.” for “hour.”
as §5, with “Binding signal of 850 pM mouse or rat TrkB in absence of the antibody was defined as 100% binding or 0% blocking. The baseline signal of assay buffer alone was defined as 0% binding or 100% blocking.” left out

T2 sequence (Q16620 other isoform, or with tags, fused parts or gaps limits assumed, form in doubt): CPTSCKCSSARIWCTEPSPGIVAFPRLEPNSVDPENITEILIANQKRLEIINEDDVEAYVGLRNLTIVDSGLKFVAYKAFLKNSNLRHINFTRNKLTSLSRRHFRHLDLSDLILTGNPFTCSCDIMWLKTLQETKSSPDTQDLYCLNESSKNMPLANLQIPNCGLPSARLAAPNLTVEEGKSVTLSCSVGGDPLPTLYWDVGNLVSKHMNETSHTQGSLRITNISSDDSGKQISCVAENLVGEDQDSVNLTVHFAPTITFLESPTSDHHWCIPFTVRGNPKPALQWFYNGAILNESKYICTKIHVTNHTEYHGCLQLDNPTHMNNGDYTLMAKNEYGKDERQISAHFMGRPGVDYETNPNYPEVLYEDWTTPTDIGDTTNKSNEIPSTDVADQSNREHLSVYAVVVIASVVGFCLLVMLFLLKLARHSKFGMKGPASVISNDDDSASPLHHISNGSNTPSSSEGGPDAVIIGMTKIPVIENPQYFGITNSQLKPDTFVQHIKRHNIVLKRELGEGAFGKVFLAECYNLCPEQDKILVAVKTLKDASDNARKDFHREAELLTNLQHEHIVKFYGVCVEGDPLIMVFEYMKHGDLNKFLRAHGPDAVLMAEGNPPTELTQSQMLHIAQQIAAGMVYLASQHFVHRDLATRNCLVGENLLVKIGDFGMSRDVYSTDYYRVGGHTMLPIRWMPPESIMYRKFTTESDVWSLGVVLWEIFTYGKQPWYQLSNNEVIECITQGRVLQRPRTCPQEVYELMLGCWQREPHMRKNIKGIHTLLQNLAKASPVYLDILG
T5 sequence (chain, as listed by the source limits assumed): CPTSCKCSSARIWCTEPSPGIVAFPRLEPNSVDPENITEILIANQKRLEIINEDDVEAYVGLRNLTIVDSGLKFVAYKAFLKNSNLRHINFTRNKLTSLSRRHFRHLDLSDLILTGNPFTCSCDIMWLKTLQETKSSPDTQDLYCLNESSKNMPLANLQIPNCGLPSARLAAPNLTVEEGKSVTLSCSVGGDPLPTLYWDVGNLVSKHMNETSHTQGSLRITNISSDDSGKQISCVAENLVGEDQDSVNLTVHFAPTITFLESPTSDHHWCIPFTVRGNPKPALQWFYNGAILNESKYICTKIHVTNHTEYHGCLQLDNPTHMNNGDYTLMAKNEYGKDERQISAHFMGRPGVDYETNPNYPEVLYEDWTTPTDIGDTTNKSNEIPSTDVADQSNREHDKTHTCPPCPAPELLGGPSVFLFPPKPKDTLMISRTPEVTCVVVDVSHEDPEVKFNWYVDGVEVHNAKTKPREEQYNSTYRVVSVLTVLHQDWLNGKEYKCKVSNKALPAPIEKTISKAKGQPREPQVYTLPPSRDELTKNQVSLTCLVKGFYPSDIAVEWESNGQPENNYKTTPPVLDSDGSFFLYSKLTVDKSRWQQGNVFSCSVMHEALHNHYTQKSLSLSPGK
T1 sequence (Q16620 32-822): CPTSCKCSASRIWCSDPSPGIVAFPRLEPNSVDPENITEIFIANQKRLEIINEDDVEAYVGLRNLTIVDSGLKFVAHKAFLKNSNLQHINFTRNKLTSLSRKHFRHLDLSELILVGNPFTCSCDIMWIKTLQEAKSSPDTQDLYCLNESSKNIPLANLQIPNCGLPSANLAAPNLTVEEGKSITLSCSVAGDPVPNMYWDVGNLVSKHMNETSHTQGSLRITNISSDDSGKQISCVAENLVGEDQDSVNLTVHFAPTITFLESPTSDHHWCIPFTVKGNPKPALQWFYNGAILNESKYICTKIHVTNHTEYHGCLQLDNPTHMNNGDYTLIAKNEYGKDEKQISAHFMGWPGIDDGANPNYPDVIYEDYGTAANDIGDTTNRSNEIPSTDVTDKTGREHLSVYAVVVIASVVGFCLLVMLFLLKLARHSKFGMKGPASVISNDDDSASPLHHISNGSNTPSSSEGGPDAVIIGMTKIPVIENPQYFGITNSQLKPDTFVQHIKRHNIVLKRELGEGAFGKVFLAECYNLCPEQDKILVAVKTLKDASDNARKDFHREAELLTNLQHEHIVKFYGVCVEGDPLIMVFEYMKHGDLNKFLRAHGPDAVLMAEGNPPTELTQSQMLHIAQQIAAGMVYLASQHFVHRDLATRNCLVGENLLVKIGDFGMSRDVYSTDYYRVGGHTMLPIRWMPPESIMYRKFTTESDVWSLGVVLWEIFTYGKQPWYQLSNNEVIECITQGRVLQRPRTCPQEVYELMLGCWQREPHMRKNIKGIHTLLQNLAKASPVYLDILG

B1
BDNF EC50 (M), SRE-luciferase [1]: 1e-10 M
BDNF EC50 (M), SRE-luciferase [2]: 7.4e-11 M
BDNF EC50 (M), SRE-luciferase (run of the 100 pM BDNF columns) [3]: 1e-10 M
BDNF EC50 (M), SRE-luciferase (run of the No BDNF columns) [3]: 1.3e-10 M
BDNF EC50 (M), SRE-luciferase (run of the 100 pM BDNF columns) [4]: 1.1e-10 M
BDNF EC50 (M), SRE-luciferase (run of the No BDNF columns) [4]: 7.4e-11 M

B2
Activation (%), SRE-luciferase, 100 pM BDNF [3]: 52%
Activation (%), SRE-luciferase, No BDNF [3]: 0%
Activation (%), SRE-luciferase, 100 pM BDNF [4]: 67%
Activation (%), SRE-luciferase, No BDNF [4]: 76%
EC50 (M), SRE-luciferase, 100 pM BDNF [4]: 1e-10 M
EC50 (M), SRE-luciferase, No BDNF [4]: 1.9e-10 M
90 nM TrkB.mmH Bound (RU) [5]: 12 RU
Kd [5]: 2.39 nM
koff [5]: 0.000247 s⁻¹
kon [5]: 103000 M⁻¹ s⁻¹
t½ [5]: 47 min
90 nM rTrkB.mmH Bound (RU) [6]: 11 RU
Kd [6]: 2.56 nM
koff [6]: 0.00023 s⁻¹
kon [6]: 90000 M⁻¹ s⁻¹
t½ [6]: 50 min
90nM hTrkB.mmH Bound (RU) [7]: -1 RU
antibody Binding (nm) (mouse TrkB.hFc [8]): 0.47 nm
mAb Binding (nm) (mouse TrkB.hFc [9]): 0.47 nm
mAb Binding (nm) (mouse TrkB.hFc [10]): 0.47 nm
antibody Binding (nm) (mouse TrkB.hFc [11]): 0.35 nm
antibody Binding (nm) (mouse TrkB.hFc [12]): 0.41 nm
% Blockade with 100 nM antibody [13]: 89.5%
IC50 [13]: 0.184 nM
% Blockade with 100 nM antibody (mouse TrkB.hFc [14]): 84.4%
IC50 (mouse TrkB.hFc [14]): 0.426 nM

B3
EC50 [15]: 2.2 nM
EC50 [16]: 2.22 nM
